B1: ZAP70 tSH2-GFP (tandem SH2 domains of human ZAP70, amino acids 1-264, with C-terminal GFP) (domain or fragment)
chain: MPDPAAHLPFFYGSISRAEAEEHLKLAGMADGLFLLRQCLRSLGGYVLSLVHDVRFHHFPIERQLNGTYAIAGGKAHCGPAELCEFYSRDPDGLPCNLRKPCNRPSGLEPQPGVFDCLRDAMVRDYVRQTWKLEGEALEQAIISQAPQVEKLIATTAHERMPWYHSSLTREEAERKLYSGAQTDGKFLLRPRKEQGTYALSLIYGKTVYHYLISQDKAGKYCIPEGTKFDTLWQLVEYLKLKADGLIYCLKEACPNSSASNASG

Square brackets hold non-standard residues; d marks the D form. Ends that are not written are not given here. * marks the point of attachment. Biotin = O=C1N[C@H]2[C@H](CS[C@H]2CCCCC(=O)*)N1; pY = N[C@@H](Cc1ccc(OP(=O)(O)O)cc1)C(=O)O

The target in experiment [1] is T1, Avi-CD3ζ ITAM3 (full intracellular tail of CD3ζ, amino acids 52-164, all tyrosines mutated to Ala except the … (UniProt P20963-1 52-164, biotin on the Avitag; tyrosines of ITAM3 phosphorylated in vitro by Lck). Nature of the experiment: SPR; phosphorylated on ITAM3; dissociation phase fit. A general note: SPR reads the build-up and loss of mass on a sensor chip optically.

Experiment [2] has as its target T1, Avi-CD3ζ ITAM3 (full intracellular tail …). The experiment in a line: SPR; phosphorylated on ITAM3; from kobs plot intercept.
In experiment [3] the target is B1. The experiment in a line: SPR.
In experiment [4] the target is B1. The experiment in a line: SPR; 37°C.
The target in experiment [5] is B1. The experiment in a line: single-particle tracking TIRF.
For experiment [6], the target named is B1. The experiment in a line: SPR; 37°C.
The target of experiment [7] is B1. Nature of the experiment: SPR.

In publication doi:10.1101/2020.02.12.945170 (2020) one finds koff and Kd data, which are given here for three molecules.

T1 sequence (P20963 52-164, change not shown): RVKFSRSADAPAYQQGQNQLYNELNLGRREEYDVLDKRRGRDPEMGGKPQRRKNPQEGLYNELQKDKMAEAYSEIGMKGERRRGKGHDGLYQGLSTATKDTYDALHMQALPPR

One may read the koff as the rate constant with which the complex falls apart. A high value points to a short-lived complex. B1: the koff in experiment [1] was 0.25 s⁻¹; in experiment [2], 0.21 s⁻¹.
The Kd is the free concentration of one partner at which half of the binding sites on the other are occupied at equilibrium, for simple one-to-one binding. Read a high Kd as lower affinity. As for Biotin-GKGHDLLYQGLSTATKDT[pY]DALHMQ [ITAM3 C (C-monophosphorylated CD3ζ ITAM3 peptide)], the dissociation constant Kd in experiment [3] and in experiment [4] was 7.52 µM throughout.
With Biotin-GKGHDLL[pY]QGLSTATKDTYDALHMQ [ITAM3 N (N-monophosphorylated CD3ζ ITAM3 peptide)], the Kd in experiment [3] and in experiment [4] was 20.7 µM throughout. The results for the koff in experiment [5], in experiment [6] and in experiment [7] were 4.8 s⁻¹, 5.5 s⁻¹ and 5.5 s⁻¹, respectively.
